Source: article doi:10.1101/219402 (bioRxiv, 2017)

Biological target: human CD3 on Jurkat cells (Homo sapiens (endogenous, Jurkat), UniProt P07766;P04234)
Experiment: flow cytometry on cells

Chain of human CD3 on Jurkat cells (P04234 whole entry, looked up, chain 1 of 2): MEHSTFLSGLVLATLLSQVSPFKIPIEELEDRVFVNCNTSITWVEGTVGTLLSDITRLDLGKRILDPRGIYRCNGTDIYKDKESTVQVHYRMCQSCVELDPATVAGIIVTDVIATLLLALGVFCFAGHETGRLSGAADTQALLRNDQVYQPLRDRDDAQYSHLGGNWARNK
Chain of human CD3 on Jurkat cells (P07766 23-207, looked up, chain 2 of 2): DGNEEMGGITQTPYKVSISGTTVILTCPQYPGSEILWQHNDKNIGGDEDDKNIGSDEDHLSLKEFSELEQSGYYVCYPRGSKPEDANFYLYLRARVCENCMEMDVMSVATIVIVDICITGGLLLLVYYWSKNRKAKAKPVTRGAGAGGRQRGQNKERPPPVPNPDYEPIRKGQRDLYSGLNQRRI

B1: R11 scFv-Fc (homodimeric monospecific anti-ROR1 scFv-Fc) (Fc fusion)
VH: QSVKESEGDLVTPAGNLTLTCTASGSDINDYPISWVRQAPGKGLEWIGFINSGGSTWYASWVKGRFTISRTSTTVDLKMTSLTTDDTATYFCARGYSTYYGDFNIWGPGTLVTISS
VL: ELVMTQTPSSTSGAVGGTVTINCQASQSIDSNLAWFQQKPGQPPTLLIYRASNLASGVPSRFSGSRSGTEYTLTISGVQREDAATYYCLGGVGNVSYRTSFGGGTEVVVK
B1: no binding (tested: 5 μg/mL).
